Experimental data published in US20170247447A1 (Hoffmann-La Roche, published 2017).
Like-named read-outs stand apart in the source and are kept apart here.

Assays:
[1] = target: T1, human IL-1beta (human, UniProt P01584 117-269); test: cell-based or functional assay
[2] = target: T1, human IL-1beta; test: cell-based or functional assay; remark: listed apart in the source
[3] = target: T1, human IL-1beta; test: cell-based or functional assay; remark: listed apart in the source
[4] = target: T1, human IL-1beta; test: cell-based or functional assay; remark: listed apart in the source
[5] = target: T1, human IL-1beta; test: SPR (BIAcore T200), antibody captured via anti-human Fc, human IL-1beta in solution
Experimental: All experiments were performed at 25° C. using HBS-P (10 mM His, 140 mM NaCl, 0.05% Tween 20 pH 7.4) as running and dilution buffer. Anti-human Fc antibodies were immobilized on a Series S CM5 Sensor Chip (GE Healthcare) using standard amine coupling chemistry. Bispecific antibodies were captured on the surface leading to a capturing response of 100-200 RU. […] The dissociation phase was monitored for 600 sec by washing with running buffer. The surface was regenerated by injecting 3 M MgCl2 (for anti-human Fc antibody) or 10 mM Glycine pH 1.5 (for anti-mouse Fc antibody) for 60 sec at a flow rate of 5 μl/min. Bulk refractive index differences were corrected by subtracting the response obtained from a mock surface. Blank injections were subtracted (double referencing). The derived curves were fitted to a 1:1 Langmuir binding model using the BIAevaluation software.

[6] = target: T1, human IL-1beta; test: cell-based or functional assay; remark: listed apart in the source
[7] = target: T1, human IL-1beta; test: immunoprecipitation radioimmunoassay with 125I-IL-1beta
Experimental: Determination of antibody affinity—Monoclonal antibody affinity was determined from data obtained using an immunoprecipitation radioimmunoassay. Briefly, 5000 cpm/tube of ¹²⁵IIL-1beta was incubated with dilutions of purified monoclonal antibody in 0.3 ml of 1% non-fat dry milk/0.5% Thimerosal/PBS overnight at 4° C. Antigen-antibody complexes were precipitated by the addition of 100 μL/tube each of 10% normal mouse serum/PBS and 4 mg/ml goat anti mouse IgG sera in PBS. After 4 hours at 4° C., the 1/ml tube of ice-cold 2% polyethylene glycol-6000 was added and the tubes centrifuged at 3000*g for 20 min. at 4° C. The supernatants were aspirated and the pellets counted in a gamma counter.
Affinity constants were calculated using data obtained from an immunoprecipitation radioimmunoassay (RIA) of ¹²⁵IIL-1beta binding of different antibody concentrations as described above.

[8] = target: T1, human IL-1beta; test: SPR (BIAcore), antibody captured via anti-Fc, IL-1beta in solution
Experimental: All experiments were performed at 25° C. using HBS-P (10 mM His, 140 mM NaCl, 0.05% Tween 20 pH 7.4) as running and dilution buffer. Anti-human or anti-mouse Fc antibodies were immobilized on a Series S CMS Sensor Chip (GE Healthcare) using standard amine coupling chemistry. […] The dissociation phase was monitored for 600 sec by washing with running buffer. […] The surface was regenerated by injecting 3 M MgCl2 (for anti-human Fc antibody) or 10 mM Glycine pH 1.5 (for anti-mouse Fc antibody) for 60 sec at a flow rate of 5 μl/min. Bulk refractive index differences were corrected by subtracting the response obtained from a mock surface. Blank injections were subtracted (double referencing). The derived curves were fitted to a 1:1 Langmuir binding model using the BIAevaluation software.

[9] = target: T2, cynomolgus IL-1beta (cynomolgus, UniProt P79182 117-268); test: as above
[10] = target: T1, human IL-1beta; test: as above; remark: listed apart in the source
[11] = target: T2, cynomolgus IL-1beta; test: as above; remark: listed apart in the source
[12] = target: T1, human IL-1beta; test: SPR competition, 10 nM human IL-1beta pre-incubated with antibody, competitor immobilized human IL-1RI
Experimental: All experiments were performed at 25° C. using HBS-P (10 mM His, 140 mM NaCl, 0.05% Tween 20 pH 7.4) as running and dilution buffer. Human IL-1RI was immobilized on a Series S CM5 Sensor Chip (GE Healthcare) using standard amine coupling chemistry. […] The surface was regenerated by injecting 10 mM NaOH for 60 sec at a flow rate of 5 μl/min. Bulk refractive index differences were corrected by subtracting the response obtained from a mock surface.

[13] = target: T1, human IL-1beta; test: cell-based or functional assay; remark: listed apart in the source
[14] = target: T1, human IL-1beta; test: cell-based or functional assay; remark: listed apart in the source
[15] = target: T1, human IL-1beta; test: cell-based or functional assay; remark: listed apart in the source

T2 sequence (P79182 117-268 limits assumed): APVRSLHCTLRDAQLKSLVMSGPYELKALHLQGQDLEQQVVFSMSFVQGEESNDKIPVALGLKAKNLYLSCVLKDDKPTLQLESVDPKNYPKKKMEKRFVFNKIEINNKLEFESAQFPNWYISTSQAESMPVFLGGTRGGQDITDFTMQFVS

Row | IC50, inhibition of ICAM-1 expression, A549 cells [1] | IC50, inhibition of ICAM-1 expression, HUVEC cells [2] | EC50, reduction of IL-6 expression, A549 cells [3] | EC50, reduction of IL-6 expression, A549 cells [4] | t½ [5] | other results | Binder
1 | 310 pM | 9020 pM | 120 pM | 0.0864 µg/mL | – | – | Canakinumab (antibody, V domains shown) VH: QVQLVESGGGVVQPGRSLRLSCAASGFTFSVYGMNWVRQAPGKGLEWVAIIWYDGDNQYYADSVKGRFTISRDNSKNTLYLQMNGLRAEDTAVYYCARDLRTGPFDYWGQGTLVTVSS VL: EIVLTQSPDFQSVTPKEKVTITCRASQSIGSSLHWYQQKPDQSPKLLIKYASQSFSGVPSRFSGSGSGTDFTLTINSLEAEDAAAYYCHQSSSLPFTFGPGTKVDIKR
2 | 230 pM | 300 pM | 110 pM | – | 101 s | – | huH34-2 (antibody, V domains shown, Humanized, captured by anti-human Fc in SPR; also called huH34-2 bivalent) VH: QVQLVQSGAEVKKPGASVKVSCKASGYTFTGYYMHWVRQAPGQGLEWIGYISSYNAFTTYNQKFRGRATFTVDTSISTAYMELSRLRSDDTAVYYCVRSDYYGTSLYWGQGTLVTVSS VL: EIVLTQSPATLSLSPGERATLSCRASSSVSYMHWSQQKPGQAPRLLIYSTSNLASGIPARFSGSGSGTDFTLTISSLEPEDFAVYYCHQWSNYYTFGQGTKLEIK
3 | 2230 pM | – | 1090 pM | – | – | – | huH34-3 (antibody, V domains shown) VH: QVQLVQSGAEVKKPGASVKVSCKASGYTFTGYYMHWVRQAPGQGLEWIGYISSYSAFTTYNQKFRGRATFTVDTSISTAYMELSRLRSDDTAVYYCVRSDYYGTSLYWGQGTLVTVSS VL: EIVLTQSPATLSLSPGERATLSCRASSSVSYMHWSQQKPGQAPRLLIYSTSNLASGIPARFSGSGSGTDFTLTISSLEPEDFAVYYCHQWSNYYTFGQGTKLEIK
4 | – | – | – | 0.017 µg/mL | 38 s | IC50, inhibition of ICAM-1 expression, A549 cells [6]: 0.104 µg/mL | antibody 0031 (bispecific anti-ANG2/IL-1beta CrossMab antibody) (bispecific antibody, V domains shown, also called anti-IL-1beta/ANG2 antibody) VH 1: QVQLVQSGAEVKKPGASVKVSCKASGYTFTGYYMHWVRQAPGQGLEWIGYISSYNAFTTYNQKFRGRATFTVDTSISTAYMELSRLRSDDTAVYYCVRSDYYGTSLYWGQGTLVTVSS VL 1: EIVLTQSPATLSLSPGERATLSCRASSSVSYMHWSQQKPGQAPRLLIYSTSNLASGIPARFSGSGSGTDFTLTISSLEPEDFAVYYCHQWSNYYTFGQGTKLEIK VH 2: not shown VL 2: SYVLTQPPSVSVAPGQTARITCGGNNIGSKSVHWYQQKPGQAPVLVVYDTSDRPSGIPERFSGSNSGNTATLTISRVEAGDEADYYCQVWDSSSDHWVFGGGTKLTVLSS
5 | – | – | – | 0.0387 µg/mL | 38 s | – | antibody 0032 (bispecific anti-VEGF/IL-1beta CrossMab antibody) (bispecific antibody, V domains shown, also called anti-IL-1beta/VEGF antibody) VH 1: EVQLVESGGGLVQPGGSLRLSCAASGYDFTHYGMNWVRQAPGKGLEWVGWINTYTGEPTYAADFKRRFTFSLDTSKSTAYLQMNSLRAEDTAVYYCAKYPYYYGTSHWYFDVWGQGTLVTVSS VL 1: DIQLTQSPSSLSASVGDRVTITCSASQDISNYLNWYQQKPGKAPKVLIYFTSSLHSGVPSRFSGSGSGTDFTLTISSLQPEDFATYYCQQYSTVPWTFGQGTKVEIK VH 2: QVQLVQSGAEVKKPGASVKVSCKASGYTFTGYYMHWVRQAPGQGLEWIGYISSYNAFTTYNQKFRGRATFTVDTSISTAYMELSRLRSDDTAVYYCVRSDYYGTSLYWGQGTLVTVSS VL 2: EIVLTQSPATLSLSPGERATLSCRASSSVSYMHWSQQKPGQAPRLLIYSTSNLASGIPARFSGSGSGTDFTLTISSLEPEDFAVYYCHQWSNYYTFGQGTKLEIK
6 | > 7000 pM | – | 5520 pM | – | – | – | huH34-1 (antibody, V domains shown) VH: QVQLVQSGAEVKKPGASVKVSCKASGYTFTGYYMHWVRQAPGQGLEWMGYISSYSGFTTYAQKFQGRVTMTRDTSISTAYMELSRLRSDDTAVYYCARSDYYGTSLYWGQGTLVTVSS VL: EIVLTQSPATLSLSPGERATLSCRASSSVSYMHWSQQKPGQAPRLLIYSTSNLASGIPARFSGSGSGTDFTLTISSLEPEDFAVYYCHQWSNYYTFGQGTKLEIK
7 | 180 pM | 240 pM | – | – | – | Ka [7]: 6.4e+10 M⁻¹; Kd [8]: 70 pM; koff [8]: 0.000127 s⁻¹; kon [8]: 1.85e+06 M⁻¹ s⁻¹; Kd [9]: 50 pM; koff [9]: 9.8e-05 s⁻¹; kon [9]: 1.99e+06 M⁻¹ s⁻¹; Kd [10]: 70 pM; koff [10]: 0.000127 s⁻¹; kon [10]: 1.85e+06 M⁻¹ s⁻¹; Kd [11]: 50 pM; koff [11]: 9.8e-05 s⁻¹; kon [11]: 1.99e+06 M⁻¹ s⁻¹; IC50 [12]: 3500 pM | murine anti-IL-1beta antibody ILB1-H34 (antibody, mouse IgG1, V domains shown, also called HLB1-H34) VH: EVQLQQSGPELVKTGASVKISCKASGYSFTGYYMHWVKQSHGKSLEWIGYISCYNAFTTYNQRFRGKATFTVDTSSSTAYMQFNSLTSEDSAVYYCVRSDYYGTSLYWGQGTTLTVSS VL: QIVLTQSPAIMSASLGEEITLTCSASSSVSYMHWSQQKSGSSPKLLIYSTSNLASGVPSRFSGSGSGTFYSLTISSVEAEDAADYYCHQWSNYYTFGGGTKLEIK
8 | – | – | – | – | – | IC50, inhibition of ICAM-1 expression, A549 cells [13]: 700 pM; IC50, inhibition of ICAM-1 expression, HUVEC cells [14]: 16500 pM; EC50, reduction of IL-6 expression, A549 cells [15]: 1090 pM | mumAb (novel murine anti-human IL-1beta antibody) (antibody, V domains shown) VH: EVQLQQSGPELEKPGASVKISCKASGYSFTDYNMNWVRQSNGKSLEWIGNIDPYYGGTTYNQKFKDKATLTVDKSSSTAYMQLKSLTSEDSAVYYCAREGSPTRYYVMDYWGQGTSVTVSS VL: DIQMTQSPASLSASVGETVTITCRASENIYSNLAWYQQKQGKSPQLLVYAATNLADGVPSRFSGSGSGTQFSLKINSLQPEDFGSYYCHHFYNTPWTFGGGTKLEIK
